Data: patent US6458932 (YEDA RESEARCH AND DEVELOPMENT, dated 2002)

Molecular target: urinary IFNAB-BPII (human) (UniProt P48551)
Assay: iRIA; control antibody (dilution 1:1) captured on goat anti-mouse F(ab)2, then 125I-IFNAB-BP

Chain of urinary IFNAB-BPII (human) (P48551 other isoform, or with tags, fused parts or gaps): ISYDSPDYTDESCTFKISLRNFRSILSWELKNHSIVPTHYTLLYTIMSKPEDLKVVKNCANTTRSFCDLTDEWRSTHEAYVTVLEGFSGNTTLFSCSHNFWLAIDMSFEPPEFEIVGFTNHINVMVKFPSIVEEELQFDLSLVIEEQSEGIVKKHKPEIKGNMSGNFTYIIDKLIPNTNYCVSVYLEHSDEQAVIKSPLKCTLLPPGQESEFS

## Control antibody
  iRIA - CPM: 20 cpm
